Here are results for two proteins from ChEMBL document CHEMBL1143427, “Interactions of ceftobiprole with beta-lactamases from molecular classes A to D” (Antimicrob Agents Chemother, 2007).

Some results are limits rather than exact numbers.

Substrate in data set [1]: CC(C)(O/N=C(\C(=O)N[C@@H]1C(=O)N2C(C(=O)[O-])=C(C[n+]3ccccc3)CS[C@H]12)c1csc(N)n1)C(=O)O
Description: (§1) Ratio of Kcat to Km of Serratia marcescens AmpC assessed as drug hydrolysis by spectrophotometry.

Substrate in data set [2]: CO/N=C(\C(=O)N[C@@H]1C(=O)N2C(C(=O)[O-])=C(C[N+]3(C)CCCC3)CS[C@H]12)c1csc(N)n1
Described as §1.

Substrate in data set [3]: CC1(C)S[C@@H]2[C@H](NC(=O)Cc3ccccc3)C(=O)N2[C@H]1C(=O)O
The description is as §1.

Substrate in data set [4]: Nc1nc(/C(=N/O)C(=O)N[C@@H]2C(=O)N3C(C(=O)O)=C(/C=C4\CCN([C@@H]5CCNC5)C4=O)CS[C@H]23)ns1
The data set is described as §1.

Substrate in data set [5]: O=C(Cc1cccs1)N[C@@H]1C(=O)N2C(C(=O)O)=C(/C=C/c3ccc([N+](=O)[O-])cc3[N+](=O)[O-])CS[C@H]12
Described as §1.

Substrate in data set [6]: O=C(Cc1cccs1)N[C@@H]1C(=O)N2C(C(=O)[O-])=C(C[n+]3ccccc3)CS[C@H]12
Described as §1.

Substrate in data set [7]: CC(C)(O/N=C(\C(=O)N[C@@H]1C(=O)N2C(C(=O)[O-])=C(C[n+]3ccccc3)CS[C@H]12)c1csc(N)n1)C(=O)O
Description: (§2) Activity of Serratia marcescens AmpC assessed as drug hydrolysis by spectrophotometry.

Substrate in data set [8]: CO/N=C(\C(=O)N[C@@H]1C(=O)N2C(C(=O)[O-])=C(C[N+]3(C)CCCC3)CS[C@H]12)c1csc(N)n1
The data set is described as §2.

Substrate in data set [9]: CC1(C)S[C@@H]2[C@H](NC(=O)Cc3ccccc3)C(=O)N2[C@H]1C(=O)O
The data set is described as §2.

Substrate in data set [10]: Nc1nc(/C(=N/O)C(=O)N[C@@H]2C(=O)N3C(C(=O)O)=C(/C=C4\CCN([C@@H]5CCNC5)C4=O)CS[C@H]23)ns1
The description is as §2.

Substrate in data set [11]: O=C(Cc1cccs1)N[C@@H]1C(=O)N2C(C(=O)O)=C(/C=C/c3ccc([N+](=O)[O-])cc3[N+](=O)[O-])CS[C@H]12
The description is as §2.

Substrate in data set [12]: O=C(Cc1cccs1)N[C@@H]1C(=O)N2C(C(=O)[O-])=C(C[n+]3ccccc3)CS[C@H]12
The description is as §2.

Substrate in data set [13]: CC(C)(O/N=C(\C(=O)N[C@@H]1C(=O)N2C(C(=O)[O-])=C(C[n+]3ccccc3)CS[C@H]12)c1csc(N)n1)C(=O)O
Description: (§3) Activity of Staphylococcus aureus betalactamase PC1 assessed as drug hydrolysis by spectrophotometry.

Substrate in data set [14]: CO/N=C(\C(=O)N[C@@H]1C(=O)N2C(C(=O)[O-])=C(C[N+]3(C)CCCC3)CS[C@H]12)c1csc(N)n1
The data set is described as §3.

Substrate in data set [15]: CC1(C)S[C@@H]2[C@H](NC(=O)Cc3ccccc3)C(=O)N2[C@H]1C(=O)O
The data set is described as §3.

Substrate in data set [16]: Nc1nc(/C(=N/O)C(=O)N[C@@H]2C(=O)N3C(C(=O)O)=C(/C=C4\CCN([C@@H]5CCNC5)C4=O)CS[C@H]23)ns1
Described as §3.

Substrate in data set [17]: O=C(Cc1cccs1)N[C@@H]1C(=O)N2C(C(=O)[O-])=C(C[n+]3ccccc3)CS[C@H]12
The description is as §3.

Substrate in data set [18]: CC(C)(O/N=C(\C(=O)N[C@@H]1C(=O)N2C(C(=O)[O-])=C(C[n+]3ccccc3)CS[C@H]12)c1csc(N)n1)C(=O)O
Description: (§4) Ratio of Kcat to Km of Staphylococcus aureus betalactamase PC1 assessed as drug hydrolysis by spectrophotometry.

Substrate in data set [19]: CO/N=C(\C(=O)N[C@@H]1C(=O)N2C(C(=O)[O-])=C(C[N+]3(C)CCCC3)CS[C@H]12)c1csc(N)n1
The description is as §4.

Substrate in data set [20]: CC1(C)S[C@@H]2[C@H](NC(=O)Cc3ccccc3)C(=O)N2[C@H]1C(=O)O
The data set is described as §4.

Substrate in data set [21]: Nc1nc(/C(=N/O)C(=O)N[C@@H]2C(=O)N3C(C(=O)O)=C(/C=C4\CCN([C@@H]5CCNC5)C4=O)CS[C@H]23)ns1
Described as §4.

Substrate in data set [22]: O=C(Cc1cccs1)N[C@@H]1C(=O)N2C(C(=O)[O-])=C(C[n+]3ccccc3)CS[C@H]12
The data set is described as §4.

B1: Beta-lactamase (Serratia marcescens), P18539 (protein)
chain: MTKMNRCAALIAALILPTAHAAQQQDIDAVIQPLMKKYGVPGMAIAVSVDGKQQIYPYGVASKQTGKPITEQTLFEVGSLSKTFTATLAVYAQQQSKLSFKDPASHYLPDVRGSAFDGVSLLNLATHTSGLPLFVPDDVTNNAQLMAYYRAWQPKHPAGSYRVYSNLGIGMLGMIAAKSLDQPFIQAMEQGMLPALGMSHTYVQVPAAQMANYAQGYSKDDKPVRVNPGPLDAESYGIKSNARDLIRYLDANLQQVKVASVARRWPRRTSVITSAGAFTQDLMWENYPYPVKLSRLIEGNNAGMIMNGTPATAITPPQPELRAGWYNKTGSTGGFSTYAVFIPAKNIAVEMLANKWFPNDDRVEAAYHIIQALEKR
In the case of B1, the kcat/Km – broadly, the turnover number divided by the Michaelis constant – was under 88 M⁻¹ s⁻¹ in [1]; under 690 M⁻¹ s⁻¹ in data set [2]; 9e+06 M⁻¹ s⁻¹ in data set [3]; under 8400 M⁻¹ s⁻¹ in [4]; 6e+07 M⁻¹ s⁻¹ in [5]; 3.1e+06 M⁻¹ s⁻¹ in data set [6]. In addition, the Km (as a rule, the substrate concentration at which the rate is half of its maximum) in data set [7] is 570 µM; in [8] it was over 800 µM; in data set [9] it was 2.1 µM; in data set [10] it was 320 µM; in [11] it was 14 µM; in data set [12] it was 680 µM. The kcat (commonly the number of substrate molecules converted per active site and unit of time at saturation) in data set [7] is under 0.05 s⁻¹; in [8] it was under 0.55 s⁻¹; in [9], 19 s⁻¹; in [10] it was under 2.7 s⁻¹; in data set [11] it was 840 s⁻¹; in data set [12], 2000 s⁻¹.

B2: Beta-lactamase (Staphylococcus aureus), P00807 (protein)
chain: MKKLIFLIVIALVLSACNSNSSHAKELNDLEKKYNAHIGVYALDTKSGKEVKFNSDKRFAYASTSKAINSAILLEQVPYNKLNKKVHINKDDIVAYSPILEKYVGKDITLKALIEASMTYSDNTANNKIIKEIGGIKKVKQRLKELGDKVTNPVRYEIELNYYSPKSKKDTSTPAAFGKTLNKLIANGKLSKENKKFLLDLMLNNKSGDTLIKDGVPKDYKVADKSGQAITYASRNDVAFVYPKGQSEPIVLVIFTNKDNKSDKPNDKLISETAKSVMKEF
B2: the Michaelis-Menten constant (Km) in data set [13] was 29 µM; in [14] it was 61 µM; in [15] it was 3.4 µM; in data set [16], 78 µM; in data set [17] it was 110 µM. In addition, the kcat in data set [13] turned out to be 0.00035 s⁻¹; in data set [14], 0.002 s⁻¹; in data set [15] it was 65 s⁻¹; in data set [16], 0.024 s⁻¹; in [17], 0.14 s⁻¹. The kcat/Km stood at 12 M⁻¹ s⁻¹ in [18]; 33 M⁻¹ s⁻¹ in [19]; 1.9e+07 M⁻¹ s⁻¹ in data set [20]; 310 M⁻¹ s⁻¹ in data set [21]; 1300 M⁻¹ s⁻¹ in data set [22].
